Tests used:
[1] = target: T1, Flag-Star-PAP (full length)
T1 chain: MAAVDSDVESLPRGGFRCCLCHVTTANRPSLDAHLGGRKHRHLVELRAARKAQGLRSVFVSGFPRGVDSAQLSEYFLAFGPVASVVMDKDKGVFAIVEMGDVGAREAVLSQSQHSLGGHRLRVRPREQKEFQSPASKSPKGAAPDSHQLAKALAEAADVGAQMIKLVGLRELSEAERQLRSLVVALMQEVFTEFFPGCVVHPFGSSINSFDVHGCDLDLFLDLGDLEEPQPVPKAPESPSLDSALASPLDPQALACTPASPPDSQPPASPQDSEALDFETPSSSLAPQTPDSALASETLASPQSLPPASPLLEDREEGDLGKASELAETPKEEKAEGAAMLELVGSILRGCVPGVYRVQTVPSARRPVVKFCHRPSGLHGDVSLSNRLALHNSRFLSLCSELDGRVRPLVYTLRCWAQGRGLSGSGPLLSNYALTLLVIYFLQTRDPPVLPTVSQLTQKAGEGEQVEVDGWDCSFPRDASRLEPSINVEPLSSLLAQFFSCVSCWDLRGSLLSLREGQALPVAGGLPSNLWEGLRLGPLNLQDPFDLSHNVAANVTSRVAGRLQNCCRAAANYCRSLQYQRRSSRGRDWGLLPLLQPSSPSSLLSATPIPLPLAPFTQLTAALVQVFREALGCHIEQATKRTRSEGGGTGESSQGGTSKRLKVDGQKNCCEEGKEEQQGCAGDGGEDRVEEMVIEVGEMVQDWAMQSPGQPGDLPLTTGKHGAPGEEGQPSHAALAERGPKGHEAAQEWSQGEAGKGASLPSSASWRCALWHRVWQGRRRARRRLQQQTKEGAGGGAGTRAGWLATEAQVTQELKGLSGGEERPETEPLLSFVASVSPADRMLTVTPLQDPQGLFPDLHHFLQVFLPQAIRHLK

[2] = target: T2, FLAG-Star-PAP ΔPRR ½ (lacking amino acids 223-274)
T2 chain: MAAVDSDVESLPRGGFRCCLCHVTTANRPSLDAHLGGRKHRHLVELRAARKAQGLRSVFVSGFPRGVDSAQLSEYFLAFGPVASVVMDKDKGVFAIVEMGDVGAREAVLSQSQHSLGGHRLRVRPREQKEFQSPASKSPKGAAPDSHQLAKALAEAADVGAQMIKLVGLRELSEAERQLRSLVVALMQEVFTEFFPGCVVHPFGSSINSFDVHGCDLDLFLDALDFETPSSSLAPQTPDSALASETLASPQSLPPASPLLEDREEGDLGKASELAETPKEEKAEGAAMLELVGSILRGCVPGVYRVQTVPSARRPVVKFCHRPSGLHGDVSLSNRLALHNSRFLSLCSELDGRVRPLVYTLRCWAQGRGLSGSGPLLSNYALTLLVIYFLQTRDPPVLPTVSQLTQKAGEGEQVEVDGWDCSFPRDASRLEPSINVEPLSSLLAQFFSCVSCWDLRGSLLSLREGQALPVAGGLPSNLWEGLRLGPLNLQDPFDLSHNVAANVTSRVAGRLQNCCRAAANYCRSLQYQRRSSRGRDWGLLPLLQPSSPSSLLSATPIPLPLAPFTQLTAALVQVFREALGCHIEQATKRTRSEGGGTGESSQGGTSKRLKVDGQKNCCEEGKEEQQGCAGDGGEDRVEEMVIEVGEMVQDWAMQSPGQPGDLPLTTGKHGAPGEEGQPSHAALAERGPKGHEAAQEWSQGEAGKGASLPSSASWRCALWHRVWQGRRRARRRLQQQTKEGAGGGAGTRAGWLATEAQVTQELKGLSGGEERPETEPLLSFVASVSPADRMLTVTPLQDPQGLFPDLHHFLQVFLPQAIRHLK

B1: FLAG-CKIα (wild type) (protein)
chain: MASSSGSKAEFIVGGKYKLVRKIGSGSFGDIYLAINITNGEEVAVKLESQKARHPQLLYESKLYKILQGGVGIPHIRWYGQGKDYNVLVMDLLGPSLEDLFNFCSRRFTMKTVLMLADQMISRIEYVHTKNFIHRDIKPDNFLMGIGRHCNKLFLIDFGLAKKYRDNRTRQHIPYREDKNLTGTARYASINAHLGIEQSRRDDMESLGYVLMYFNRTSLPWQGLKAATKKQKYEKISEKKMSTPVEVLCKGFPAEFAMYLNYCRGLRFEEAPDYMYLRQLFRILFRTLNHQYDYTFDWTMLKQKAAQQAASSSGQGQQAQTPTGF
Q: With B1 as the protein, how does the “in vitro kinase assay: phosphorylation of heat inactivated FLAG-Star-PAP” value [1] read?
A: Purified FLAG-CKIα was able to directly phosphorylate heat inactivated Star-PAP

Q: What about the “in vitro kinase assay: phosphorylation of FLAG-Star-PAP truncation and deletion mutants” value [2] of the same protein?
A: CKIα was able to phosphorylate all truncation mutants except those which lacked the first half of the proline rich region (ΔPRR ½, amino acids 223-274)
